{"source": "the nanobody polyreactivity screen of Harvey et al. (2022)", "data": [{"experiment": "yeast display, Sf9 membrane polyspecificity reagent, FACS + sequencing; frameworks hold sequencing errors", "method_in_brief": "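Sorting gates, low and high (top ~1%), were placed on anti-HA fluorescence to track expression and on streptavidin fluorescence to track reagent binding. A clone's polyreactivity label is taken from the gate it came out of. The reagent was 10% biotinylated, detergent-solubilized Sf9 membrane, applied for 1 hour at 4 °C to galactose-induced yeast display cells.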", "values": [{"sequence": "QVQLVESGGGLVQAGGSLRLSCAASGRIFGGYAMGWYRQAPGKEWEVVAAIRDSGRTYYADSVKGRFTISRDNAKNTVYLQMNSLKPEDTAVYYCAADAHSSYSPFRWYDYWGQGTQVTVSS", "polyreactivity (PSR sort gate)": "low polyreactivity"}, {"sequence": "QVQLVESGGGLVQAGGSLRLSCAASGRIFGGYTMGWYRQAPGKERELVAAITGSGGRTYYADSVKGRFTISRDNAKNTVYLQMNSLKPEDTAVYYCNTVYRYRYYWGQGTQVTVSS", "polyreactivity (PSR sort gate)": "high polyreactivity"}, {"sequence": "QVQLVESGGGLVQAGGSLRLSCAASGRIFGGYVMGWYRQAPGKEREFVAAISGRGTSTSYADSVKGRFTISRDNAKNTVYVQMNSLKPEDTAVYYCAARPKSDYSNGGNYWGQGTQVTVSS", "polyreactivity (PSR sort gate)": "high polyreactivity"}, {"sequence": "QVQLVESGGGLVQAGGSLRLSCAASGRIFGHYAMGWYRQAPGKERELVAAIRYSAGRTYYAGSVKGRFTISRDNAKNTVYLQMNSLKPEDTAVYYCAKTSRYLTGGGDYWGQGTQVTVSS", "polyreactivity (PSR sort gate)": "high polyreactivity"}, {"sequence": "QVQLVESGGGLVQAGGSLRLSCAASGRIFGINAMGWYRQAPGKERELVAAITWSGDGTYYADSVKGRFTISRDNAKNTVYLQMNSLKPEDTAVYYCARYDYWGHGTQVTVSS", "polyreactivity (PSR sort gate)": "low polyreactivity"}, {"sequence": "QVQLVESGGGLVQAGGSLRLSCAASGRIFGINAMGWYRQGPGKERELVAASRSSDVSTYNADSVKGRFTISRDNAKNTVYLQMNSLKPEDTAVYYCAAAYRTQIYRNEYWGQGTQVTVSS", "polyreactivity (PSR sort gate)": "low polyreactivity"}, {"sequence": "QVQLVESGGGLVQAGGSLRLSCAASGRIFGINVMGWYRQAPGKERELVARITGRGGRTYYADSVKGRFTISRDNAKNTVYLQMNSLKPEDTAVYYCNAQPSTTGTYDYWGQGTQVTVSS", "polyreactivity (PSR sort gate)": "high polyreactivity"}, {"sequence": "QVQLVESGGGLVQAGGSLRLSCAASGRIFGIYAMGWYRQAPGKERELVAAISYSGGSTYYADSVKGRFTISRDNAKNTVYLQMNSLNPEDTAVYYCNADYYASYYPYYSIRLDYWGQGTQVTVSS", "polyreactivity (PSR sort gate)": "low polyreactivity"}, {"sequence": "QVQLVESGGGLVQAGGSLRLSCAASGRIFGIYAMGWYRQAPGKERELVAAISYSGGSTYYADSVKGRFTISRDNAKNTVYLQMNSMKPEDTAVYYCNADYYASYYPYYSIRLDYWGQGTQVTVSS", "polyreactivity (PSR sort gate)": "low polyreactivity"}, {"sequence": "QVQLVESGGGLVQAGGSLRLSCAASGRIFGIYAMGWYRQAPGKERELVATITDSDDSTYYADSVKGRFTISRDNAKNTVNLQMNSLKPEDTAVYYCATAFSYGGGAYDYWGQGTKVTVSS", "polyreactivity (PSR sort gate)": "low polyreactivity"}, {"sequence": "QVQLVESGGGLVQAGGSLRLSCAASGRIFGKYAMGWYRQAPWKERELVATISLSGVRTYYADSVKGRFTISRDNAKNTVYLQMNSLKPEDTAVYYCAAGYSSNGDYWGQGTQVTVSS", "polyreactivity (PSR sort gate)": "low polyreactivity"}, {"sequence": "QVQLVESGGGLVQAGGSLRLSCAASGRIFGKYVMGWYRQAPGKERELVAAISSGGSTYADSVKGRFTISRDNAKNTFYLQMNCLKPEDTAVYYCNTRPRLYGYRPSQYTYDYWGQGTQVTVSS", "polyreactivity (PSR sort gate)": "high polyreactivity"}, {"sequence": "QVQLVESGGGLVQAGGSLRLSCAASGRIFGLNAMGWYRQAPGKEREIVAAIRWRGGSTYYADSVKGLFTISRDNANNNVYLLMNSLKPEDTAVYYCAADRNLGVSRYGYWGQGTQVNVSS", "polyreactivity (PSR sort gate)": "high polyreactivity"}, {"sequence": "QVQLVESGGGLVQAGGSLRLSCAASGRIFGLNAMGWYRQAPGKERELVAAISERDGSTYYADSVKGRFTISRDNAKNTVYLQMNSLKPEDTAVYYCAAEKPVHYVRGVHYDYWGQGTQVTVSS", "polyreactivity (PSR sort gate)": "low polyreactivity"}, {"sequence": "QVQLVESGGGLVQAGGSLRLSCAASGRIFGLNAMGWYRQAPGKERELVAAISERDGSTYYADSVKGRFTISRDNAKNTVYLQMNSLKPEDTAVYYCAAVTPVHYVRGVHYDYWGQGTQVTVSS", "polyreactivity (PSR sort gate)": "low polyreactivity"}, {"sequence": "QVQLVESGGGLVQAGGSLRLSCAASGRIFGLNSLGWYRQAPGNEMELVAAIDIIGGSTYYADSVKGRFTISRDNAKNTVYLQMNSLKPEDTAVYYCAAEADFWRYVEYDYWGQGTQVTVSS", "polyreactivity (PSR sort gate)": "low polyreactivity"}, {"sequence": "QVQLVESGGGLVQAGGSLRLSCAASGRIFGLYAMGWYRQAPGKERELVAAIRSSGGSTYYADSVKGRFTISRDNAQNTVYLQMISQKPDDTAVYYCAADGDEDGEYWGQGTQVTVSS", "polyreactivity (PSR sort gate)": "low polyreactivity"}, {"sequence": "QVQLVESGGGLVQAGGSLRLSCAASGRIFGLYAMGWYRQAPGKERELVAAITLSGDGTDYADSVKGRFTISRDNAKNTVYLQMNSLKPEDTPVYYCAKVGQYWWNMDYWGQGTQVTVSS", "polyreactivity (PSR sort gate)": "low polyreactivity"}, {"sequence": "QVQLVESGGGLVQAGGSLRLSCAASGRIFGNNAMGWYRQAPGKERELVAAISWSARSTYADSVKGRFTISRDNAKNTVYLQMNSLKPEVTAVYYCNADSAARKGWPIYGYWGQGTKVTVSS", "polyreactivity (PSR sort gate)": "high polyreactivity"}, {"sequence": "QVQLVESGGGLVQAGGSLRLSCAASGRIFGNYAMGWSRQAPGKERELVSAITYSTGGTSTYADSVKGLFTISRDNAKNSVYLQMNSLKPEDTAVYYCAVRRQYRRAYSFSQSRYDYWGQGTQVTVSS", "polyreactivity (PSR sort gate)": "high polyreactivity"}, {"sequence": "QVQLVESGGGLVQAGGSLRLSCAASGRIFGNYAMGWYRQAPGKERELVAAIRWSGGRTYYADSVKGRFTISRDTAKNTVYLQMNSLKPEDTAVYYCNAYGRYSYPTFDYWGQGTQVTVSS", "polyreactivity (PSR sort gate)": "high polyreactivity"}, {"sequence": "QVQLVESGGGLVQAGGSLRLSCAASGRIFGNYAMGWYRQAPGKESELVAAISGGGSTYYADSVKGRFTISRDNAKNTVYLQMNSLKPEDTAVYYCAARFLWSVFGRKGGYWGQGTQVTVSS", "polyreactivity (PSR sort gate)": "low polyreactivity"}, {"sequence": "QVQLVESGGGLVQAGGSLRLSCAASGRIFGPNAMGWYRPAPGKERELVAAISTRDGSTSYADSVKGRFTISRDNAKNTVYLQMNSLKPEDTAVYYCAKRWPYWYRVTQYDNVDYWGQGTQVTVSS", "polyreactivity (PSR sort gate)": "low polyreactivity"}, {"sequence": "QVQLVESGGGLVQAGGSLRLSCAASGRIFGPYAMGWYRQAPGKERELVATITWSGVSTYYADSVKGRFTISRDNAKNTVYLQMNSLKPEDTAVYYCNAKRTGQWFLHVPVYYWGQGTQVTVSS", "polyreactivity (PSR sort gate)": "low polyreactivity"}, {"sequence": "QVQLVESGGGLVQAGGSLRLSCAASGRIFGPYAMGWYRQAPGTERELVAAIRASSSSTYYADSVKGRFTISRDNAKNTVYLQMNSLKPEDTAVYYCAADWYYGYAWKYGYWGQGTQVTVSS", "polyreactivity (PSR sort gate)": "low polyreactivity"}, {"sequence": "QVQLVESGGGLVQAGGSLRLSCAASGRIFGPYTKGWYRQAPGKERELVATISYSGSTTYYADSVKGRFTISRDNAKNTVYLQMNSLKPEDTAVYYCAAYYWARRDWGQGTQVTVSS", "polyreactivity (PSR sort gate)": "high polyreactivity"}, {"sequence": "QVQLVESGGGLVQAGGSLRLSCAASGRIFGPYTMGWYRPAPGKEREFVAAISRSGDSTYYADSVKGRFTISRDNAKNTVYLHMNSLKPADTAVYYCAAKYGTRLTAYYYWGQGTQVTVSS", "polyreactivity (PSR sort gate)": "high polyreactivity"}, {"sequence": "QVQLVESGGGLVQAGGSLRLSCAASGRIFGQNAMGWYRQAPGKERELVAVITSRGTRTYYADSVKGRFTISRDNAKNTVYLQMNSLKPEDTAVYYCAADVYSDNYKTWPYDYWGQGTQVTVSS", "polyreactivity (PSR sort gate)": "low polyreactivity"}, {"sequence": "QVQLVESGGGLVQAGGSLRLSCAASGRIFGQNTMGWYRQAPGKERELVAAITWNGGRTYYADSVKGRFTISRDNAKNTVYLQMNSLKPEDTAVYYCAARYSTYPWYNYWGQGTQVTVSS", "polyreactivity (PSR sort gate)": "high polyreactivity"}, {"sequence": "QVQLVESGGGLVQAGGSLRLSCAASGRIFGQNVMGWYIQAPGKERELVAAITSAGRTYYADSVKGRFTISRDIAKNTVYLQMKSLKPEDTAVYYCAAYVRRGFDWGQGTQVTVSS", "polyreactivity (PSR sort gate)": "high polyreactivity"}, {"sequence": "QVQLVESGGGLVQAGGSLRLSCAASGRIFGRNAMGWYRQAPGKERELVAAISKSGTSTYYADSVKGRFTISRDNAKNTVYLQMNSLKPEDTAVYYCAAALPGYGDYYYWGQGTQVTVSS", "polyreactivity (PSR sort gate)": "high polyreactivity"}, {"sequence": "QVQLVESGGGLVQAGGSLRLSCAASGRIFGRNAMGWYRQAPGKERELVAAISRSGGSTYYADSVKGRFTISRDNAKNTVYLQMNSLKPEFTAVYYCAADVYRTWYWWFDYWGHGTQVTVSS", "polyreactivity (PSR sort gate)": "high polyreactivity"}, {"sequence": "QVQLVESGGGLVQAGGSLRLSCAASGRIFGRNAMGWYRQAPGKERELVAAISWRGGNTYYADSVKGRFTISRDNAKNTVYLQMNSLKPEDTAVYYCNTVQYRNEMGYWGQGTQVTVSS", "polyreactivity (PSR sort gate)": "high polyreactivity"}, {"sequence": "QVQLVESGGGLVQAGGSLRLSCAASGRIFGRNAMGWYRQAPGKERELVASITWTGGSTYYADSVKGRFTISRDNAKNTVYLQMNSLKPEDTAVYYCAAETWYGSSWWDAGEYYYWGQGTQVTVSS", "polyreactivity (PSR sort gate)": "high polyreactivity"}, {"sequence": "QVQLVESGGGLVQAGGSLRLSCAASGRIFGRYAKGWYRQAPGKEMELVAAISRSGGSTYYADSVKGRFTISRDNAKNTVYLQMNSLKPEDTAVYDCAAVPGISVGRQPGYDSDYWGQGTQVTVSS", "polyreactivity (PSR sort gate)": "low polyreactivity"}, {"sequence": "QVQLVESGGGLVQAGGSLRLSCAASGRIFGRYAMGWYRQAPGKDRELVAAITYSGGSTYYADSVKGRFTISRDNAKNTVYFQMNSLKPEDTALYYCNAVAYRSRGPHFNYWGQGTQVTVST", "polyreactivity (PSR sort gate)": "high polyreactivity"}, {"sequence": "QVQLVESGGGLVQAGGSLRLSCAASGRIFGRYAMGWYRQAPGKERELVAAISRRGGTTYYADSVKGRFTISRDNAKNTVYLQMNSLKPEDTAVYYCNADTYGYGFDYWGQGTQVTVSS", "polyreactivity (PSR sort gate)": "high polyreactivity"}, {"sequence": "QVQLVESGGGLVQAGGSLRLSCAASGRIFGRYAMGWYRQAPGKERELVAAITSGGSTKYADSVKGRFTISRDNAKNNVDLQMNSLKPEDTAVYYCAVVPYGPVYRSYYYWGQGTQVTVSS", "polyreactivity (PSR sort gate)": "high polyreactivity"}, {"sequence": "QVQLVESGGGLVQAGGSLRLSCAASGRIFGRYAMGWYRQAPGKERELVAGISARGGSTYYADSVKGRFTISRDNAKNTVYLQMNSLKPADTAVYYCAAAGYRGGGYWGQRTQVTVSS", "polyreactivity (PSR sort gate)": "high polyreactivity"}, {"sequence": "QVQLVESGGGLVQAGGSLRLSCAASGRIFGRYAMGWYRQAPGKERELVARITFRGGNTYYADSVKGRFTISRDNAKNTVYLQMNSLKPEDTAVYYCNASKHNPYGGDYWGQGTQVTVSS", "polyreactivity (PSR sort gate)": "high polyreactivity"}, {"sequence": "QVQLVESGGGLVQAGGSLRLSCAASGRIFGRYAMGWYRQAPGKERELVASIRSRGGSTYYADSVKGRFTISRDNAKNTVYLQMNSLKPEDTAVYYCAADGTRSYKGYYWGQGTQVTVSS", "polyreactivity (PSR sort gate)": "high polyreactivity"}, {"sequence": "QVQLVESGGGLVQAGGSLRLSCAASGRIFGRYAMGWYRQAPGKERGLVAAITRRGGNTYYADSVKGRFTISRDNAKNTVYLQMNSLKPEDTAVYYCNDDTSTYAIRGQWSWYDYWGQGTQVTVSS", "polyreactivity (PSR sort gate)": "high polyreactivity"}, {"sequence": "QVQLVESGGGLVQAGGSLRLSCAASGRIFGRYAMGWYRQATGKERELVAAITSGGRTSYADSVKGRFTISRDNAKNTVYLQMNSLKPEDTAVYYCNVVSRNSIRFDYWGQGTQVTVSS", "polyreactivity (PSR sort gate)": "high polyreactivity"}]}]}
